According to US20240392013A1, “IL1RAP ANTIBODIES AND USES THEREOF” (STELEXIS THERAPEUTICS, LLC, priority 2021, published 2024):

What was measured:
[1] = system: IL1-induced downstream signaling (phospho-NFκB) in K562 cells; assay: IL1 signaling in CML (K562) cells, Western blot; format: cell-based, human; conditions: antibody 20 μg/ml, IL1β 100 ng/ml
Description: AML patient samples or cancer cells (AML, chronic myelogenous leukemia (CML), pancreatic, head and neck squamous cell carcinoma (HNSCC), bladder, non-small-cell lung carcinoma (NSCLC), colorectal and triple-negative breast cancer (TNBC)) were seeded in 6-well plates (5×10^5 cells/well) and incubated overnight at 37° C./5% CO2 in humified incubator. In experiments conducted in cancer cell lines, cells were washed 2× with PBS and serum-starved for 3 hours. Following, cells were treated with IL1RAP antibodies at concentration of 20 μg/ml and incubated for 1 h at 37° C./5% CO2 in humidified incubator. After 1 h, cells were treated with IL1β (Invivogen, cat: rcyec-hil1b), IL33 (Adipogen, cat: AG-40B-0160-C010) or IL36 cytokines (R@D, cat: 6836IL) at 100 ng/ml and incubated for 15 more minutes. Cells were harvested on ice after 1× wash with cold PBS and were centrifuged for 5 minutes at 5000 rpm at 4° C. Cells were then lysed with NP-40 buffer for 5 minutes on ice and centrifuged for 15 minutes at 15000 rpm at 4° C. Supernatants were collected and protein concentrations were determined by BCA (Thermofisher, Cat #PI23225). […] After 3× washes, ECL was applied (Thermofisher, Cat #32106) and proteins were detected after exposure to autoradioraphic films (Worldwide medical products, Cat #41101001) and protein intensity was quantitated using ImageJ software.

[2] = system: AML patient samples; assay: Proliferation of AML patient samples, Cell-Titer Glo; format: cell-based, human; conditions: 1 μM, 7 days
[3] = system: patient-derived AML samples; assay: Cell viability of patient-derived AML samples, CellTiter-Glo; format: cell-based, human; conditions: 15 patient-derived AML samples; 0.1-100 nM, 6 days
Description: Primary patient-derived AML cells collected using leukapheresis or peripheral blood draw were selected based on expression levels of IL1RAP, IL1R1 and IL1RL1. On study day 0, cell viability was calculated, and cells were seeded at a density of 20,000 viable cells/well in 96-well plates. Cells were treated on Day 0 with IL1RAP monoclonal antibodies at a concentration of 100 nM followed by 5-fold serial dilutions. Cytarabine treatment (5 μM) was used as a positive control. Plates were kept at 37° C./5% CO2 in humified incubator and media was not changed during the duration of the assay. On Day 6, plates were removed from incubator and equilibrated to room temperature for up to 30 minutes. Then CellTiter-Glo was added to wells (100 μl) and plates were mixed for 2 minutes on plate rocker, followed by 10 minutes incubation at room temperature. Luminescent signal was recorded using Tecan plate reader and IC50s were calculated.

[4] = system: AML cells (THP-1); assay: Expression of differentiation markers in AML cells, flow cytometry; format: cell-based, human; conditions: 150 μg/ml, 48 hours
Description: Methods: AML cells (THP-1) were seeded at 0.5×10^6/well in 6-well plate and were treated with IL1RAP antibody or IgG control at 150 μg/ml for 48 hours. After 48 hours cells were collected, and expression of differentiation markers was monitored by flow cytometry. Cells were stained for CD14 (BD, cat: 325620) and CD15 (Thermo, cat: 17-01-59-42) differentiation markers and data were analyzed with FlowJo.

[5] = system: THP-1 cells; assay: Jurkat-Lucia NFAT-CD16 ADCC reporter assay against THP-1 cells; format: cell-based, human; conditions: THP-1 target cells
Source text: Methods: ADCC activity is mediated through binding of NK cell's CD16 receptors to the Fc region of antibodies. A Jurkat-Lucia NFAT-CD16 ADCC Reporter cell assay (Invivogen, Cat #jktl-nfat-cd16; https://www.invivogen.com/jurkat-lucia-nfat-adcc-adcp-cells) was used to analyze IL1RAP mAb STLX2012 for ADCC activity. Briefly, the Jurkat cell line was engineered to express the cell surface Fc receptor CD16A (FcγRIIIA) and the Lucia luciferase reporter gene. ADCC is triggered by CD16A cross-linking upon antigen-bound antibody binding at the surface of immune effector cells. Cells are maintained in the presence of zeocin (100 μg/ml) and blasticidin (10 μg/ml).

[6] = system: AML patient-derived samples; assay: Colony formation of AML patient-derived samples, alone or with Azacitidine or Venetoclax; format: cell-based, human; conditions: 2 weeks
Description: Methods: Clonogenicity of AML patient-derived samples were assayed using STLX2012 alone or in combination with Azacitindine (Aza) or Venetoclax (Ven). AML patient-derived samples were plated in MethoCult media and cultured in the presence of STLX2012 (50 μg/mL) or control IgG1 antibody (50 μg/mL), plus or minus Azacitidine (100 nM) or Venetoclax (100 nM), for 2 weeks. Colony numbers were counted manually using an inverted microscope and normalized to the control IgG1 control.

[7] = system: AML cells (patient #6); assay: AML patient-derived sample engraftment in immunodeficient mice; format: in vivo, NSG-SGM3 immunodeficient mice
Source text: Methods: NSG™-SGM3 immunodeficient mice (Jackson Laboratory) were irradiated with 200 rads and then infused with AML cells (patient #6) collected from a leukapheresis sample and then treated bi-weekly with three doses of STLX2012 or control IgG1 antibody for 7 weeks. Doses were 1 mpk, 10 mpk, or 30 mpk for STLX2012, and 30 mpk for control IgG1.

[8] = day 50, 1, 10, 30 mpk bi-weekly 7 weeks, vs control IgG

B1: 74804_12A21B: anti-IL1RAP mAb; VH SEQ ID NO:6, VL SEQ ID NO:23, κ light chain (antibody, V domains shown)
VH: QVQLLQSGAEVKKPGSSVKVSCKASGGTFSIYAIDWVRQAPGQGLEWMGGIIPIFGTANSAQKFQGRVTITADKSTSTAYMELSSLRSEDTAVYYCARNGATSDAFDMWGQGTMVTVSS
VL: EIVLTQSPGTLSLSPGERATLSCRASLSVSSNYLAWFQQRPGQAPRLLIHGVSRRATGIPDRFSGSGSGTDFTLTISRLEPEDFAVYYCQQYGSSPLTFGGGTKVEIK
modifications: 74804_12A21B VH and 74804_29D13A VH; 74804_12A21B VL
Inhibition of IL1 signaling (phosphorylation of NFκB) [1]: inhibited IL1 signaling in these CML (K562) cells | Inhibition of cell proliferation [2]: inhibited cell proliferation | Inhibition of viability [3]: inhibition of viability of patient-derived AML samples | Expression of CD14 differentiation marker [4]: induced the expression | Expression of CD15 differentiation marker [4]: induced the expression | ADCC activity (reporter) [5]: showed ADCC activity | Colony numbers, combined with Azacitidine ([6]; STLX2012 50 μg/mL + Azacitidine 100 nM): Further reduction in colony numbers | Colony numbers, combined with Venetoclax ([6]; STLX2012 50 μg/mL + Venetoclax 100 nM): Further reduction in colony numbers | Colony numbers ([6]; STLX2012 50 μg/mL alone, vs control IgG1): decreased colony numbers in AML patient samples | bone marrow (BM) chimerism, dose dependence ([7]; 1, 10, 30 mpk): dose-dependent reduction in bone marrow (BM) chimerism | human CD45+AML cells in spleens [7, 8]: significantly reduced human CD45+AML cells | human CD45+AML cells in the bone marrow [7, 8]: significantly reduced human CD45+AML cells
